Measurements published in patent US20250011448A1 (STAIDSON BIOPHARMA, published 2025).

T1: human TNFR2 expressed on cells (Expi293 cells stably expressing huTNFR2) (human, UniProt P20333 23-461)
T1 construct: whole, on cells; Also used here as the target of the Treg assay (native TNFR2 on human primary Treg cells); also called huTNFR2 expressed cells; Expi293-TNFR2 cells
T1 sequence (looked up): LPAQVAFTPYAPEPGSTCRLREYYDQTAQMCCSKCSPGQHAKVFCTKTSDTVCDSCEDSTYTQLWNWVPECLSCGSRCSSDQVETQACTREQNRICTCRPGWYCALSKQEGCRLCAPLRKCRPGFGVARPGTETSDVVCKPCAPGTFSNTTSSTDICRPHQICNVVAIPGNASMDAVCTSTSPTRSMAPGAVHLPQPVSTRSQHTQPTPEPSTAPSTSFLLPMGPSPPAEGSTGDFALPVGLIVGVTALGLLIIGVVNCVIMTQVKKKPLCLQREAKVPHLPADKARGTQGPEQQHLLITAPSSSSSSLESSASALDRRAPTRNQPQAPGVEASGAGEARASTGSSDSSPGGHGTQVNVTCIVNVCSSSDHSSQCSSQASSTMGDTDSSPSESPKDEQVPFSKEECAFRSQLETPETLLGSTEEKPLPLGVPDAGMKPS

T2: human TNFR2 extracellular domain with C-terminal 10×His tag (human, UniProt P20333 23-257)
T2 construct: also called huTNFR2-His; His-tag-huTNFR2
T2 sequence: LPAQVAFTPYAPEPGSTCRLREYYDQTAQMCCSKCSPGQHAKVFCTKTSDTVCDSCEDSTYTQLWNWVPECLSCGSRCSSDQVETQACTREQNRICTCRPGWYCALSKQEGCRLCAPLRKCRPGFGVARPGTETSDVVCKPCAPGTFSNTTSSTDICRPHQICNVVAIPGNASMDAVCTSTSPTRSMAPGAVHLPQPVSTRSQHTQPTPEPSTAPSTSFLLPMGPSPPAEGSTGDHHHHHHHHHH

T3: cynomolgus monkey TNFR2 extracellular domain with C-terminal 10×His tag (cynomolgus monkey, UniProt P20333 23-257 (human entry))
T3 construct: also called cynoTNFR2-His; His-tag-cynoTNFR2
T3 chain: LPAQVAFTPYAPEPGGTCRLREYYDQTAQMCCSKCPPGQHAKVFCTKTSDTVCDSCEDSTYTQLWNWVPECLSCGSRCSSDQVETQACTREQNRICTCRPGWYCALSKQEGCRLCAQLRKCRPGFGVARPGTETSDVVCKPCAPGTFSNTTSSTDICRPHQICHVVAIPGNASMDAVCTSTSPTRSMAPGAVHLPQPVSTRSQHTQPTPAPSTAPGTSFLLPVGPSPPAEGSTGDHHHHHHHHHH

T4: cynomolgus monkey TNFR2 extracellular domain as used in the blocking ELISA (cynomolgus monkey, UniProt P20333 23-257 (human entry))
T4 construct: also called cynoTNFR2
T4 chain: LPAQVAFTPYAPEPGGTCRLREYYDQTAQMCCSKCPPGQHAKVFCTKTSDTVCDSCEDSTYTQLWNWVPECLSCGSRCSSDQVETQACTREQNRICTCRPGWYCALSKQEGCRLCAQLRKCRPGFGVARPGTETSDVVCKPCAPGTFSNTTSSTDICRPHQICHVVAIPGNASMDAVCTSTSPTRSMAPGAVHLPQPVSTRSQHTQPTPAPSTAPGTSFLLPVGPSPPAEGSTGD


Assays:
[1] = biological target: T1, human TNFR2 expressed on cells (Expi293 …); assay: flow cytometry on Expi293 cells stably expressing huTNFR2, y axis TNFR2 binding (MFI)
Protocol: The coding sequence of huTNFR2 (Uniprot, P20333) was cloned into a lentiviral vector and the virus was packaged according to the instruction of the virus packaging kit (Lenti-X™ Packaging Single Shots, Cat #631275, Takada). The Expi293 cells were transduced with the recombinant virus and selected by puromycin. The cell line stably expressing huTNFR2 was incubated with anti-TNFR2 antibodies in PBS with 0.5% BSA, 1 mM EDTA, and 0.1% sodium azide (FACS buffer) for 30 minutes at 4° C. The cells were washed, and then incubated with 10 nM phycoerythrin (PE) conjugated anti-Human Fe Ab (Biolegend, cat #409304) for 20 minutes at 4° C. Cells were washed and then […] by flow cytometry with Attune (ThermoFisher Scientific). Data were analyzed with FlowJo software. Antibody binding is represented as median fluorescence intensity (MFI).
FACS based binding and blocking assays of humanized antibodies were performed as described above.

[2] = biological target: T2, human TNFR2 extracellular domain with …; assay: BLI (Octet RED96), antibody captured on AHC biosensor, His-tag-huTNFR2 in solution, 1:1 model
Protocol: (§1) The following kinetic assay was performed using anti-human IgG Fc capture (AHC) biosensors (ForteBio) in kinetics buffer (PBS, 0.1% Tween-20 and 1% bovine serum albumin): (a) antibody (2 μg/mL) for 300 sec, (b) baseline for 120 sec, (c) association with His-tag-huTNFR2 (2.5, 0.5 and 0 μg/mL) for 420 sec and (d) dissociation for 1200 sec. Data fitting and analysis was performed with Octet data analysis software 8.0 (ForteBio) using a 1:1 binding model after Savitzky-Golay filtering. The dissociation constant (Kd) was calculated as the ratio of Koff/Kon.

[3] = biological target: T2, human TNFR2 extracellular domain with …; assay: BLI (Octet RED96), AHC capture, His-tag-huTNFR2 in solution; antibody sample after 2 weeks at 40 °C
Protocol: as §1, with “antibody sample” for “antibody”, “see,” for “sec,”, “filtering.” for “filtering. The dissociation constant (Kd) was calculated as the ratio of Koff/Kon.”

[4] = biological target: T2, human TNFR2 extracellular domain with …; assay: BLI (Octet RED96), AHC capture, His-tag-huTNFR2 in solution; antibody sample after 4 weeks at 40 °C
Protocol: as §1, with “antibody sample” for “antibody”, “see,” for “sec,”, “filtering.” for “filtering. The dissociation constant (Kd) was calculated as the ratio of Koff/Kon.”
(§2) The binding kinetic data were presented in Table 18, showing that the binding with human-TNFR2 was not affected under the accelerated thermal stressed condition (4 weeks at […]

[5] = biological target: T2, human TNFR2 extracellular domain with …; assay: BLI (Octet RED96), AHC capture, His-tag-huTNFR2 in solution; antibody sample at week 0 of storage at 40 °C
Protocol: as §1, with “antibody sample” for “antibody”, “see,” for “sec,”, “filtering.” for “filtering. The dissociation constant (Kd) was calculated as the ratio of Koff/Kon.”
as §2

[6] = biological target: T3, cynomolgus monkey TNFR2 extracellular …; assay: ELISA, plate coated with His-tagged TNFR2 ECD, serial dilution of chimeric IgG
Protocol: TNFR2 binding of purified recombinant chimeric antibodies: The huTNFR2, cynoTNFR2 antigen binding ELISA was performed on the purified recombinant chimeric antibodies. Briefly, 384-well, clear, flat bottom, high binding plates (VWR, cat #29444-096) were coated overnight at 4° C. with 1 μg/mL of huTNFR2 or cynomolgus monkey TNFR2-His in PBS. After removing the coating solution, the plates were blocked by adding blocking buffer and incubated at room temperature for 1 hour. Plates were then washed 3 times with wash buffer. Serial dilution of purified antibodies in PBS was added to individual well followed by incubation at room temperature for 1 hour. Plates were washed 3 times with wash buffer. Then 50 μL/well of goat anti hu Kappa —AP (Southern Biotech, cat #2061-04) at 1:3000 dilution or goat anti human IgG Fc-AP at 1:3000 dilution in ELISA diluent was added, incubated at room temperature for 1 hour, washed 5 times with wash buffer and developed for 30 minutes with 50 μL/well of pNPP substrate. Plates were analyzed with a Bio-TEK at 405 nm. The chimeric TNFR2 antibodies were tested positive for binding to huTNFR2 and cynoTNFR2. The TNFR2 binding EC50 values are shown in Table 6, FIG. 1A (for huTNFR2) and FIG. 1B (for cynoTNFR2).

[7] = biological target: T3, cynomolgus monkey TNFR2 extracellular …; assay: BLI (Octet RED96), antibody captured on AHC biosensor, His-tagged TNFR2 in solution, 1:1 model
Protocol: as §1, with “0 μg/mL) and His-tag-cynoTNFR2 (2.5, 0.5 and 0 μg/mL) for 420” for “0 μg/mL) for 420”, “Savitzky-Golay filtering.” for “Savitzky-Golay filtering. The dissociation constant (Kd) was calculated as the ratio of Koff/Kon.”

[8] = biological target: T4, cynomolgus monkey TNFR2 extracellular …; assay: blocking ELISA: antibody pre-mixed with cynoTNFR2, binding of cynoTNFR2 to coated cynomolgus monkey TNFα read out
Protocol: 96-well round bottom ELISA plates were coated overnight at 4° C. with 50 μL/well of 0.5 μg/mL human TNFα recombinant protein (R&D system, Cat #210-TA-100) in coating buffer. After removing the coating solution, blocking buffer was added into the plates followed by incubation at room temperature for 1 hour in order to block unspecific binding. During the blocking period, hybridoma antibodies samples were mixed with 0.5 μg/mL TNFR2-huFc at a 1:1 volume ratio and incubated at room temperature for another 1.5 hours. Then 50 μL/well of antigen-antibody mix solution was transferred into TNFα coated wells and incubated at room temperature for 1.5 hours. Plates were then washed 5 times with wash buffer. Then, 50 μL/well of goats anti-human IgG Fc-AP (Southern Biotech, cat #2014-04) at 1:2000 dilution in assay buffer was added, incubated at room temperature for 1 hour, washed 4 times with wash buffer and developed for 30 minutes with 50 μL/well of pNPP substrate. Plates were analyzed with a Synergy HT (Bio-TEK) at 405 nm. Parental hybridomas with the desired human and cynoTNFR2 binding as well as the ability to block human TNFR2 and human TNFα binding were prioritized for subcloning and further characterization. Subcloning was carried out with limited dilution and visual inspection was performed to ensure clonality. Hybridoma subclones were screened with the same binding and blocking assays and selected positive hits were cryopreserved.
TNFR2 blocking by purified recombinant chimeric antibodies: Human TNFR2 blocking ELISA was performed on purified recombinant chimeric antibodies following the same protocol as described above, except that 50 μL/well of serial dilution of purified antibodies (starting at 10 μg/mL, 1:3 dilution) in assay buffer was added into the reaction. The blocking IC₅₀ value represents the antibody concentration that inhibited 50% of huTNFR2 or cynoTNFR2 binding to coated human TNFα or cynomolgus monkey TNFα.

EC50 (read off the curve) [1] [nM] | Kd [2] [nM] | koff [2] [s⁻¹] | kon [2] [M⁻¹ s⁻¹] | Kd [3] [nM] | koff [3] [s⁻¹] | kon [3] [M⁻¹ s⁻¹] | Kd [4] [nM] | koff [4] [s⁻¹] | kon [4] [M⁻¹ s⁻¹] | Kd [5] [nM] | koff [5] [s⁻¹] | kon [5] [M⁻¹ s⁻¹] | EC50 [6] [nM] | Kd [7] [nM] | koff [7] [s⁻¹] | kon [7] [M⁻¹ s⁻¹] | IC50 [8] [nM] | Binder
~0.6 | 1.11 | 0.000456 | 412000 | 1.35 | 0.000471 | 348000 | 1.06 | 0.000527 | 497000 | 1.68 | 0.000495 | 295000 |  |  |  |  |  | SB1901-72 humanized anti-TNFR2 antibody (antibody, V domains shown) VH: QVQLVQSGAEVKKPGASVKVSCKASGYTFTDDYIDWVRQATGQGLEWIGEIYPGSGNTYYNEKFKGRVTMTRDKSISTAYMELSSLRSEDTAVYYCARSQVYGKIAMDHWGQGTLVTVSS VL: DIVMTQSPDSLAVSLGERATINCRASESVDNSGNSFMHWYQQKPGQPPKLLIYRASNLESGVPDRFSGSGSRTDFTLTISSLQAEDVAVYYCQQSKEDPYTFGQGTKVEIK
 |  |  |  |  |  |  |  |  |  |  |  |  | 0.0494 | 0.672 | 0.00065 | 967000 | 0.968 | 51B5 chimeric anti-TNFR2 antibody (antibody, V domains shown, Chimeric: mouse variable domains with human constant regions, made as recombinant IgG1) VH: QVQLQQSGAELARPGTSVKLSCKASGYTFTDDYIDWVKQRTGQGLEWIGEIYPGSGNTYYNEKFKGKATLTADKSSSTAYMQLSSLTSEDSAVYFCARSQVYGKIAMDHWGQGTSVTVSS VL: DIVLTQSPASLAVSLGQRATISCRASESVDNSGNSFMHWYQQIPGQPPKLLIYRASNLESGIPARFSGSGARTDFTLTIDPVGAVDVATYYCQQSKEDPYTFGGGTKLEIE
